The results in this text go back to publication PMC10318062 (Nature Communications, 2023).

First the molecules themselves.
B1: C121 (antibody, V domains shown)
VH: not shown
VL: QSALTQPASVSGSPGQSITISCTGTSSDVGSYNLVSWYQQHPGKAPKLMIYEGSKRPSGVSNRFSGSKSGNTASLTISGLQAEDEADYYCCSYAGSSTLVFGGGTKLTVL
B2: COVA2-39 (antibody, V domains shown)
VH: QVQLVETGGGLIQPGGSLRLSCAASGFTVSSNYMSWVRQAPGKGLEWVSVIYTGGTTYYADSVKGRFTISRDNSKNTLYLQMNSLRAEDTAVYYCARAHVDTAMVESGAFDIWGQGTRVTVSS
VL: QSALTQPASVSGSPGQSITISCTGTSSDVGSYNLVSWYQQHPGKAPKLMIYEVTKRPSGVSNRFSGSKSGNTASLTISGLQAEDEADYYCCSYAGSSTWVFGGGTKLTVL
B3: BD-604 (antibody, V domains shown)
VH: EVQLVESGGGLIQPGGSLRLSCAASGIIVSSNYMTWVRQAPGKGLEWVSVIYSGGSTFYADSVKGRFTISRDNSKNTLYLQMSSLRAEDTAVYYCARDLGPYGMDVWGQGTTVTVSS
VL: DIQLTQSPSFLSASVGDRVTITCRASQGISSDLAWYQQKPGKAPNLLIYAASTLQSGVPSRFSGSGSGTEFTLTISSLQPEDFATYYCQQLNSDLYTFGQGTKLEIK
B4: CC12.1 (antibody, V domains shown)
VH: EVQLVESGGGLIQPGGSLRLSCAASGLTVSSNYMSWVRQAPGKGLEWVSVIYSGGSTFYADSVKGRFTISRDNSKNTLYLQMNSLRAEDTAVYYCARDLDVYGLDVWGQGTTVTVSS
VL: DIVMTQSPSFLSASVGDRVTITCRASQGISSYLAWYQQKPGKAPKLLIYAASTLQSGVPSRFSGSGSGTEFTLTISSLQPEDFATYYCQQLNSYPPKFTFGPGTKVEIK
B5: COVA2-41 (antibody, V domains shown)
VH: EVQLVESGGGLVKPGGSLRLSCSASGFTFSNYNMDWVRQAPGKGLEWVSSISSSSSYIYLADSVKGRFTISRDNAKNSLYLQMNSLRAEDTAVYYCARVQKDIVVVPVALADYYYYGMDVWGQGTTVTVSS
VL: DIVMTQSPATLSVSPGERATLSCRASQSVSSNLAWYQQKPGQAPRLLIYGASTRATGIPARFSGSGSGTEFTLTISSLQPEDFAVYYCQQCYNWPPWTFGQGTRVEFK
B6: BD-629 (antibody, V domains shown)
VH: EVQLVESGGGLIQPGGSLRLSCAASEFIVSRNYMSWVRQAPGKGLEWVSVIYSGGSTYYADSVKGRFTISRDNSKNTLNLQMNSLRAEDTAVYYCARDYGDYYFDYWGQGTLVTVSS
VL: EIVLTQSPGTLSLSPGERATLSCRASQGVSSFLAWYQQKPGQAPRLLIHGASSRATGIPDRFSGSGSGTDFTLTITRLEPEDFAVYYCQQYGSSPRTFGQGTKVEIK
B7: CC12.3 (antibody, V domains shown)
VH: QVQLVESGGGLIQPGGSLRLSCAASGFTVSSNYMSWVRQAPGKGLEWVSVIYSGGSTFYADSVKGRFTISRDNSKSTLYLQMNSLRVEDTAVYYCARDFGDFYFDYWGQGTLVTVSS
VL: not shown
B8: COVA3-08 (antibody, V domains shown)
VH: EVQLVESGPGLVKPSETLSLTCTVSGGSISSYYWSWIRQPPGKGLEWIGYIYYSGSTNYNPSLKSRVTISVDTSKNQFSLRLSSVTAADTAVYYCARGPAATYYYYMDVWGKGTMVTVSS
VL: not shown
B9: COVA2-10 (antibody, V domains shown)
VH: EVQLLESGGGLVQPGGSLKLSCAASGFTFSSYAMSWVRQAPGKGLEWVSAISGSGSNTYYADSVKGRFTISRDNSKNTLYLQMNSLRAEDTAVYYCAKGLRGQQLVIPTEYFQHWGQGTLVTVSS
VL: not shown
B10: COVA2-34 (antibody, V domains shown)
VH: QVQLVESGGGVVQPGRSLRLSCAASGFTFSSYAMHWVRQAPGKGLEWVAVISYDGSNKYYADSVKGRFTISRDNSKNTLYLQMNSLRAEDTAVYYCARSASGSYYGAFDYWGQGTLVTVSS
VL: QTVVTQPASVSGSPGQSITISCTGTSSDVGGYNYVSWYQQHPGKAPKLMIYDVSNRPSGVSNRFSGSKSGNTASLTISGLQAEDEADYYCSSYTSSSTLGLYVFGTGTKVTVL
B11: COVA2-43 (antibody, V domains shown)
VH: QVQLVQPGAEVKKPGASVKVSCKASGYTFTSYGISWVRQAPGQGLEWMGWISAYNGDTNYAQKLQGRVTMTTDTSTSTAYMELRSLKSDDTAVYYCARFDYGYPYSSWSVLSIDYWGQGTLVTVSS
VL: DIVMTQSPSSLSASVGDRVTITCRASQGIRNDLGWYQQKPGKAPKRLIYAASSLQSGVPSRFSGSGSGTEFTLTISSLQPEDFATYYCLQHNSYPLTFGGGTKLEIK
B12: C110 (antibody, V domains shown)
VH: QVQLQQSGAEVKKPGESLKISCKGSGYSFTSYWIGWVRQMPGKGLEWMGIIYPGDSDTRYSPSFQGQVTISADKSISTAYMQWSSLKASDTAMYYCARSFRDDPRIAVAGPADAFDIWGQGTMVTVSS
VL: DIQMTQSPSTLSASVGDRVTITCRASQSISYWLAWYQQKPGKAPKLLIYQASSLESGVPSRFSGSESGTEFTLTISSLQPDDFATYYCQQYNSYPYTFGQGTKLEIK
B13: COVA1-07 (antibody, V domains shown)
VH: QVQLVESGAEVKKPGSSVKVSCKASGGTLSSYAITWVRQAPGQGLEWVGGIIPIFGTANYAQKFQGRVTITADESTSTAYMELSSLRSEDTAVYYCARVGAYDSSGYSNDYWGQGTLVTVSS
VL: DIQLTQSPATLSLSPGERATLSCRASQSVSSYLAWYQQKPGQAPRLLIYDASNRATGIPARFSGSGSGTDFTLTISSLEPEDFAVYYCQQRSNWPPRVTFGGGTKVEIK
B14: COVA2-18 (antibody, V domains shown)
VH: EVQLVQSGAEVKKPGSSVKVSCKASGGTFSSYAISWVRQAPGQGLEWMGGIIPIFGTTNYAQKFQGRVTITTDESTSTAYMELSSLRSEDTAVYYCARVYSYDSSGYYLEYWGQGTRVTVSS
VL: EIVLTQSPATLSLSPGERATLSCRASQSVSSYLAWYQQKPGQAPRLLIYDASNRATGIPARFSGSGSGTDFTLTISSLEPEDFAVYYCQQRSNWPPSITFGQGTRLEIK
B15: COVA2-14 (antibody, V domains shown)
VH: QVQLVQSGAEVKKPGSSVKVSCKASGGTFSSYAIIWVRQAPGQGLEWMGGIIPIFGTANYAQKFQGRVTITTDESTSTAYMELSSLRSEDTAVYYCARVRYYDSSGYYEDYWGQGTLVTVSS
VL: EIVLTQSPATLSLSPGERATLSCRASQSVSSYLAWYQQEPGQAPRLLIYDASNRATGIPARFSGSGSGTDFTLTISSLEPEDFAVYYCQQRSNWPPMYTFGQGTKVEIK
B16: C119 (antibody, V domains shown)
VH: QVQLVQSGAEVKKPGASVKVSCKASGYTFTSYYMHWVRQAPGQGLEWMGIINPSGGSTSYAQKLQGRVTMTRDTSTSTVYMELSSLRSEDTAVYYCARANHETTMDTYYYYYYMDVWGKGTTVTVSS
VL: QSALTQPASVSGSPGQSITISCTGTSSDVGGYKYVSWYQRHPGKAPKLMIYDVSNRPSGVSNRFSGSKSGNTASLTISGLQAEDEADYYCSSYTSSSTSVVFGGGTQLTVL
B17: C144 (antibody, V domains shown)
VH: EVQLVESGGGLIQPGGSLRLSCAASGFTVSNNYMSWVRQAPGKGLEWVSVIYSGGSTYYADSVKGRFTISRDKSKNTLYLQMNRLRAEDTAVYYCAREGEVEGYNDFWSGYSRDRYYFDYWGQGTLVTVSS
VL: QSALTQPASVSGSPGQSITISCTGTSSDVGGYNYVSWYQQHPGKAPKLMIYDVSNRPSGVSNRFSGSKSGNTASLTISGLQAEDEADYYCSSYTSSSTRVFGTGTKVTVL
B18: C105 (antibody, V domains shown)
VH: QVQLVESGGGLIQPGGSLRLSCAASGFTVSSNYMSWVRQAPGKGLEWVSVIYSGGSTYYADSVKGRFTISRDNSKNTLYLQMNSLRAEDTAVYYCARGEGWELPYDYWGQGTLVTVSS
VL: QSALTQPPSGSGSPGQSVTISCTGTSSDVGGYKYVSWYQQHPGKAPKLMIYEVSKRPSGVPDRFSGSKSGNTASLTVSGLQAEDEADYYCSSYEGSNNFVVFGGGTKLTVL
B19: COVA1-18 (antibody, V domains shown)
VH: EVQLVESGGGLVQPGGSLRLSCAASGFTVSSNYMSWVRQAPGKGLEWVSVIYSGGSTYYADSVKGRFTISRDNSKNTLYLQMNSLRAEDTAVYYCARVEWAAAGTFYWGQGTLVTVSS
VL: QSALTQEPSLTVSPGGTVTLTCGSSTGAVTSGHYPYWFQQKPGQAPRTLIYDTSNKRSWTPARFSGSLLGGKAALTLSGAQPEDEAEYYCLLSYSGVWVFGGGTKLTVL
B20: COVA2-28 (antibody, V domains shown)
VH: EVQLVESGGGVVQPGRSLRLSCAASGFTFSSYGMHWVRQAPGKGLEWVAVIWYDGSNKYYADSVKGRFTISRDNSKNTLYLQMDSLRAEDTAMYYCAKDKAPPCSSGWYYFDYWGQGTLVTVSS
VL: not shown
B21: C002 (antibody, V domains shown)
VH: EVQLVESGGGVVQPGRSLRLSCAASGFTFSIYGMHWVRQAPGKGLEWVAVISYDGSNKYYADSVKGRFTISRDNSKNTLYLQMNSLRAEDTAVYYCAKEGRPSDIVVVVAFDYWGQGTLVTVSS
VL: not shown
B22: BD-236 (antibody, V domains shown)
VH: EVQLVESGGGLIQPGGSLRLSCAASGITVSSNYMSWVRQAPGKGLEWVSVIYSGGSTDYADSVKGRFTISRDKSKNTLYLQMNSLRAEDTAVYYCARDLGEAGGMDVWGQGTTVTVSS
VL: AIQLTQSPSSLSASVGDRVTITCRASQGISSYLAWYQQKPGKAPKLLIYAASTLQSGVPSRFSGSGSGTDFTLTISSLQPEDFATYYCQQLNSYPPAFGGGTKVEIK
B23: BD-368-2 (antibody, V domains shown)
VH: EVQLLESGGGVVQPGGSLRLSCAASGFAFTTYAMNWVRQAPGRGLEWVSAISDGGGSAYYADSVKGRFTISRDNSKNTLYLQMNSLRAEDTAVYYCAKTRGRGLYDYVWGSKDYWGQGTLVTVSS
VL: AIQLTQSPSSLSASVGDRVTITCRASQGISSYLAWYQQKPGKAPKLLIYAASTLQSGVPSRFSGSGSGTDFTLTISSLQPEDFATYYCQQLNSYPPAFGGGTKVEIK

The test deals with SARS-CoV-2 hexaproline stabilized pre-fusion spike glycoprotein (S6P) (SARS-CoV-2, ancestral (Wuhan-Hu-1 …, UniProt P0DTC2, stabilised)).
On to B1, for which the binding result is reported as “binds”. Regarding B2, the binding result is “binds”.

Turning to B3, the binding result is listed as “binds”. The value for B4 was “binds”; that for B5 was “binds”. Next, B6: “binds”; B7: “binds”; B8: “binds”.

On to B9, for which the binding result is given as “binds”. Next, B10: “binds”; B11: “binds”.

Consider B12, for which the binding result is given as “binds”. Next, B13: “binds”; B14: “binds”. Regarding B15, the binding result is “binds”. The value for B16 was “binds”. The value for B17 was “binds”; that for B18 was “binds”; that for B19 was “binds”. The value for B20 was “binds”; that for B21 was “binds”. As for B22, the binding result is on record as “binds”. Consider B23, for which the binding result is given as “binds”.
